Changes are numbered by the printed parent chain. Numbers in names are those of the source. Where two headings read alike, the source gives them in different places.
B1: GST-tagged cytoplasmic domain of DCC (GST-DCC^cyto) (domain or fragment, human, UniProt P43146 1123-1447, looked up)
chain: RRSSAQQRKKRATHSAGKRKGSQKDLRPPDLWIHHEEMEMKNIEKPSGTDPAGRDSPIQSCQDLTPVSHSQSETQLGSKSTSHSGQDTEEAGSSMSTLERSLAARRAPRAKLMIPMDAQSNNPAVVSAIPVPTLESAQYPGILPSPTCGYPHPQFTLRPVPFPTLSVDRGFGAGRSQSVSEGPTTQQPPMLPPSQPEHSSSEEAPSRTIPTACVRPTHPLRSFANPLLPPPMSAIEPKVPYTPLLSQPGPTLPKTHVKTASLGLAGKARSPLLPVSVPTAPEVSEESHKPTEDSANVYEQDDLSEQMASLEGLMKQLNAITGSAF
B2: GST-DCC^R1343H-cyto (domain or fragment, human, UniProt P43146 1123-1447, looked up)
chain: B1 chain with R221H
B3: GST-DCC^ΔWIRS-cyto (domain or fragment, human, UniProt P43146 1123-1447, looked up)
chain: B1 chain with S222A, F223A

Legend:
[1] = target: T1, (MBP)2-WRC, human WAVE regulatory complex (human, UniProt Q7L576 1-1253; Q9Y2A7 1-1128; Q92558 1-178; Q9NYB9 1-158; Q8WUW1 1-75); assay: pull-down
[2] = target: T1, (MBP)2-WRC, human WAVE regulatory …; assay: pull-down; remark: listed apart in the source

binding result [1]	binding result [2]	Binder
binds		B1
	binds	B2
	binds	B3
